Laboratory results reported in a protein production outcome set (Wang et al. 2014).

Assay: label from the status in PepcDB records
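Also: failed if final PepcDB status was selected cloned or expressed and not failed if soluble or beyond.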

Row | Sequence | protein production
1 | MWPASRCASDSSLQCGRPNDRIPMSDIAVLINTAVAVLAAVLLIVRFRVNPVISLILASVYLGLAVGLGVEKTVKTITGGFGEIMVDVGLLIAFGVLMGSILNQSGAIRRLVEHLLKTFGPKRLPYTMGLAIGTVLQSIFLDVLLVISAPLARKLAPKIGKLGTARMATAMAIALECGIVFTVPGVASLALAGLLNVPLGKMLLFGLLLVIPTIIISIAIMTFLFRRGFWNEAKDEDHTFVAEEDSEGEEPTDGGAATVPPTANSERGTAASSAQPAGGSVAVVERERKEAPLILLFAPLLTSLLLIGAGAILEILEISMPWLQLLGEPVIALLIGLIGTCLVTRAAIGQKKVEEAIAVGFKESGQILILTGVGGSLAATVAAAGLGDILGGFFSASTVAPLLVVWAIAAVLHIAVGSVTLSAITAAGLLAPIAPAIGLDPVLLALAAGAGSLFMVHVTSNTFWLLQSLLGQSVRGALKSVTVGVSVASVVAILLILPMSLLF | failed
2 | MWRVRCKAKGGTHLLQGLSSRTRLRELQGQIAAITGIAPGSQRILVGYPPECLDLSDRDITLGDLPIQSGDMLIVEEDQTRPKASP | not failed
3 | MWRYRSPEMPLTESFLDLMLIPIIGFGLAVILLIGFFLLYQEVGIFKNLKFLVIRKNNPFFILALFCLITGLALGLVGYWGILEPKLGAADLQALRRNLIILSLLLFGVTFRQYLFDLIKPVTTMAIWRKIGTFNYKNRIAILTYVLLGLIALAWMAPMASTKIIFSINDHTSHIGYIVQGRMALEEGQFPLRVAPLENFGFRYPGFQFYSQLPYFFGAIIYKFLTPTNPYTAYKILLWSALWLGGIFIYRVGFFFTRSQIAAILGGVTYMSAPYFLNNVHARGAFTEAIAQGILAIVLFYAIQTFYYPHYRHLILGALAWCALGLTHIITFVYTTIFIALLGAIFLVKNKPNHWQKGITYISLSYIWAWLLALYFLAPVALESGSLAIRRQIQAINPFNTTDITPIANLLAPNSLPHQPTELGIAPTYGFHPAVGWILLAGFGTVIYFVFAGKSLPRRLWRSQPWLIPLLSVFILALFLTWSPVNIWNLLPRQLWVTQFTFRFLTHVMWSGALLTTLAIILIFRERLRSRHLILGILIIVIASRPWLPIPRGTVTVEELLQDPLFRYSGALDYLYRLPNKAVPVNTKAQSAVEKIYGKAELQLLHPDWIPGYLSWDVFINGPLPIDVDIPYPAWPETEKPTLVLQGRVPMDKIKSQANLIVFVDQQPLTSIPLTQEELKVKVPFTDVKFAGNAFELKFIVEGETTDGNPLYIRMNHLYFDDFSAANTLLPVHATKEMCNQKGVVTNCPVEMPAEAGTVQLPILYYPAMQQVVVDNQPVKGFFTNYRDFNLLSLNLSPGKHQIQVKFTGLIWANFISLLAWLTLIITAIALKFYPRKPEQTIFK | failed
4 | MWTDAGGQVHEAASGDVRIASLVPSITELLFDLGLADQLVARTGFCIHPEPAVRAVAKVGGTKDVKLDRLRALAPTHVVVNIDENRRETVDEIRTFVPHVIVTHPCAPEDNLALYRLLGGIFGRRPQAEALVGQLRGELDAIQAQTWPARRVLYAIWQDPWMTVSRATYISRMLALVNWATWPDDADTSDTPAACVDGDCSRPNAPGERYPTFRWSDALVRELDAVLLSTEPYRFTEDHADALERQIGKPVLLVDGEMLSWYGSRAVAGARYLRSLAQGFLEHHHHHH | not failed
5 | MWTDSREALSDLQLGECERVLDVGCGTGELTRVLREETDGTVVGLDADTDLLAAAGDPTVCGDATQLPFDDDSFDLVVCQALLINLPDPEVAVREFARVATDRVAAIEPNNAAVTVESTVDAEPMLARRARRLFLDGVRTDVTLGSDAADVFSDAELTVVSTTQYDQEQQIEPPYDDAAMQAARRKATGTGLAHDRETILNGEATPAEYDALRERWRSMGRDVVEQMQDEAYERHETVPFFVTVGEIP | failed
6 | MWVDGMAKVVEVGRICVKTRGREAGRKCVIVDIIDENFVLVTGPKSLTGVRRRRVNIDHIEILDKKVDIQKGASDEEVLKALEEAGLADFMREPVRIARITPFTLLEHHHHHH | not failed
7 | MWVRVPPPAPFSIFLSPGDDIVKRRKSTRTSSFGVKGRESHDSSPFYSRAIYSNFSLPKPSEEDLIENPLPENLLDKVIEGDAREVLKKIPDCSIHLMVTSPPYNVGKEYDEDMTLDEYLEFIEEIMKEVYRVLVWGGRACFNVANLGRKPYIPLHAYLIHLFEKIGFLIRGEIIWDKGEAVSGSSTAWGSWMSPVNPVLRDQHEYIIVMSKGDLKRRKPSDREAKSTITREEFLEFTRSVWKFPPESAKRVGHPAPFPEELPYRCIQLYTFKGDVVLDPFAGVGTTCVAAVKTGRHFVGIEINPEYVKKAEERVKDILSKPTLFEDHC | failed
8 | MYAIAEDTLPARVLKELLLYRRRYPEHRQSASEADEIRRIEQVQLPRIAAFIEAGEPIEFVLPAFPAKSPNPGKVLDSRPDMAERLSLSFLNHLCQRIQLFYAPGAKITVCSDGRVFGDLVRIGDAHISAYQDALRLMIEEIGATHIGVFNLEDVRAFEAQRDNHEQLRQLLIGGYAEPLESIRETLLASEEGLLLYRAITRFLYEDGLTPDYQGSKTALQRDAKERAYGVIQRSWAWGALLADQFPRAIRLSIHPQPADSLKFGIHMMPTRDDWLTPWHGVAVNTEDRFVLMKRSEVLELGGELVQINGQPSHYRLPARAARRAAVALEHHHHHH | failed
9 | MYALIHHGRRLVQLQKLSNFRVSVQNGSALSNSFSFASVADATLIDSLKGNNFTVSYLVDSLGLTTKLAESISKKVSFEERRNPDSVLSLLTSYGFTKSQISSIITIYPRLLALDAEKSIAPKLQSLQSRGASSSELTQIVSTVPKILGKRGHKSITVYYDFVKDIIEADKSSSYEKLCHSFPQGNKKNKIRNISVLRELGVAQRLLFPLLISDGQPVCGKERFEESLKKVVEMGFDPETTKFVEALRVIYRMSDKTIEEKVNVYKRLGFGVADVWAIFKKWPSFLSYSEKKITHTFETLKSCGLLKHEVLLLLKKHPKCICSSEQKIVNSIETFLGLGFSRDEFAMMVKRYPQCIDYTAETVKKKTEFIVKNMNWPLEALVSIPQVFGYSLEKRTVPRCNVIKTLISKGLMKDGSEAPPMSSVLTSTDQAFLRRYVMKHDKLAPELMAIFTGENGK | failed
10 | MYCDHFGFSEHPFALTPNPAFLFLSSRHQEAFAHLLYGIDTRAGFIELSGEVGTGKTTVIRTFLNQLDPETHRTALVFNPTVSPLGLLQGIIREFGLPGTSTEKSELLETLNRFLLDENRAGHTVVLVIDEAQNLSPEVLEQIRLISNLETERDKLIQIVLVGQPELRHLLARQELRQLDQRITVRYHLEPMGLDDTKNYIRHRIRIAAGGREPVIFSAGAVKKIFGFSGGLPRLINAACDRALLLAYTTEAREVSPAMAAAAIADVATEARPPSPSRRFAVAAALILVAALGAGTFAVTRKGGESLPSASPPPTEPAASGEQPLKRTAALAGLAAVPEKDNLSAAVNTILRSWQAPPVASSPSPADLRSLARERGLTVTELSGTLNDLARLDTPALLHITLPQGGKRLVALTSLDKGHIGIDPPIAGHSTLTGGELSTLWSGRASVIWKNFHGIPSRLKPGGRSKAVGQLQELLKGAGYYAGRISGTYDTVTQEAIRSFQTAEGLDADGRTGEKTLLLLYRRAGGFFPPGLTQGKTAARTEAGDRSRGKVAQTRSNGEQSRLEHHHHHH | failed
11 | MYDCSHGAGSSQSPAAEPGPTPRRRHTIHRLAHNDPVNDLDFLLTPEGRALLDEVRDTDPVRELAVATRLRRTHPAELVSAALGQARLRQRAVAKFGAEDAGRMFFTPNGVEQSTRASVAAYRAGRFAALGVASVADLCCGIGGDAIALARAGIRVLAVDRDPVTAAAARANADALGLAGLIEVREADVTEVDTEAYDAVFVDPARRGGRGRIFDPEAYSPPLSWAVRAARTASRAAALKVAPGIPHEAVPEDAEAEWISDGGDVKEAVLWFGAGAAPGAVRATLLPGPRTLPGTGLPDPEVRTPGRYLYEPDGAVIRAHLVAEVAAQVGGGLLDATIAYVTADELLPTPYATAYEITDRMPFNVKKLKALLRERGVGTLTVKKRGSAVEPEELRRKVKPQGPNSATVFLTRVAGAPTMLVGHPAR | failed
12 | MYEAGLAEGESAYGHGGYISVPELPAGVAVRNSRRPDIIQESSYLRILAPAGGWLAAATLEKLADCAETYGRGLVHLTSGGTIEIYTGREQMLPLVRELNSGGLDVGSTGDDLRCLTACCGPVRCEHALVDAPALATYLGQRFIDDQQYPGYPQKVKSAVAGCPNDCIRAMMQKDHSFIGVYRDWPMVDGEMLAAWREKGGDLNGLLAACPAGALTLVGDTLEVDKERCWRCMACINYCPAIRPGRERGVAWVAGGKYGHRGPQGPMVGFVLVPFIPVADDDYTAVGDIFGAFLEFWADNAKKKERVGDFIARVGPLKILRELGLEAQPQILLSPKRNVY | failed
13 | MYEPGTEQINCNGRLIELPTLEVVRPAPKMPSDANIDWLLHIYFTRREFTRCRRLIERELNRHLNPEYLYFVQGLIDREEGNHIEALRHLQKSAELNPRNIETYKEIGRTLYIMGRFSQALGVFREAEQRSSRQDHEIYHYLGELLYRAATTQSQKDVASQQQDEARTYFELAVQSGRKLESYVRLAELYRKDKQYQKAIEILENCLHLTPENSEVLIEISVLYLKINETQKAHDRLAEVVSIERKCSPKGLLAFGAILQSRNDIDGALSKYSQIANAEPEIAELWNNIGLCFFKKQKFIVAISSLRKSVWLSPLNYNALYNLSLIYIASEQYASAFHTLAAAINLRKDNAECYMLLGLCLRKLDDMENAFVALERASSMATGQQGAGRNPLVVLNFALFCYETGRLALSTEQYNRFMSQAQDLLLPTEYKFQATKLKSLLRISNQGNGILLDSADMGESDLGHNRATELLPDELPLEVNAVVSQN | failed
14 | MYESANVSDDADRTAFRRAEKKYKLYYEQDSKFSRKKKLPKPIDLSELLDFNLISQNFNNDGVLPDGIRVSKVDSSPVFCIDNRPGFYFIPDALSLKEQCKWIKESLTSFPQPPNRTNHNAIYGPIDDLFDSAKENKVLVQDDLTNNKWKFYEEVDIEKATRSSCKSVSASVLLRKLRWSTLGLQFDWSKRNYDVSLPHNNIPDALCQLAKTHAAIAMPDGEEFRPEGAIVNYFGIGDTLGGHLDDMEADWSKPIVSMSLGCKAIFLLGGKSKDDPPHAMYLRSGDVVLMAGEARECFHGIPRIFTGEENADIGALESELSHESGHFFAEYIKTSRININIRQVF | not failed
15 | MYFTEFLTVALIHLLAVASPGPDFAVVVRESVTHGRRAGTWTALGVGCAIFLHVGYSLLGIGLIVSQSIVLFNALKWLAAAYLLYIGYKALRAQPAKPAADDLHKEAGVRTARGAFTSGFVTNGLNPKATLFFLSLFTVVINPHTPLAIQAGYGVYLAVATAVWFCLVAMLFSQQRVRAGFARMGHWFDRTMGAVLIAIGVKLAFTEMH | failed
16 | MYGEGDFYTIKSKRDYEFYLEADRLALGKNCKKPRLIGDDIWKFQRLLRQAEYYSNCQNSLLHKLYLKYILFRFHRMSIRLGFSIPINVFGPGLCIAHRGTIVVNKGARVGENCRIHACTNIGSGRDNIFLAPKIGNGVYIGPGAKIFGSVEIADNIAIGANSVVNRSFYERGISIAGVPAKKISNKGSDGMVIAATKTVSVPVSQETILEHHHHHH | not failed
17 | MYGIQTSASLPLTRPQALETQAAAPQSDAPDASAGQTRAAPQGSAAPALAAARAKADELGQAAREVRASVERQTAYETRLAAQRSAAAFSGGEPPQARREAPGAELDEARNAQTVSARLFEGNLKGVAQSGHAMSAEQKQALQSGLDDVFADAPPQARSAGAPMLYSANAAAGQGMADSDLWDMISDQIGKIKDNYLGVYENVVGQYTDFYKAFSDILSQMANWIKPGGDGNKVKLNVDALKAALEKLKKDFSLGDNLDNKKAVLFPAQSKDGGIQGGSESDARKWAKEMGLPDAPPPGFSCVQKAADGNWVVVVDMTPIDTMIRDVGALGSGTELELDNAKFQAWQSGFKAQEENLKNTLQTLTQKYSNANSLFDNLVKVLSSTISSCLETAKSFLQILEHHHHHH | not failed
